In paper PMC9468158, “Transmembrane helices mediate the formation of a stable ternary complex of b5R, cyt b5, and SCD1” (Communications Biology, 2022):

T1: full-length b5R, released from the linker-cleaved cyt b5-b5R fusion (mouse, UniProt Q9DCN2 1-301)
T1 sequence (looked up): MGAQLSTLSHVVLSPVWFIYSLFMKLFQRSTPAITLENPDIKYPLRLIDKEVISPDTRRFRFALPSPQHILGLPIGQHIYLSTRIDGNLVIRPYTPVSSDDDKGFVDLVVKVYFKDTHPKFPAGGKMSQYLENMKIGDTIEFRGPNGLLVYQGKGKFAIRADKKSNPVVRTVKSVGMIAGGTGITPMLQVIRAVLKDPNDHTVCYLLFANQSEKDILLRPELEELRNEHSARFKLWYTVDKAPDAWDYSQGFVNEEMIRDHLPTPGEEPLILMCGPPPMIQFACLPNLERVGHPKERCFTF

T2: SCD1, released from the linker-cleaved SCD1-cyt b5 fusions (mouse, UniProt P13516 1-355)
T2 construct: stearoyl-CoA desaturase-1 (SCD1), mouse, UniProt P13516; stands for the SCD1 chain of the fusion with full-length cyt b5 (wild type and TM mutants) and of the fusion with the soluble domain of cyt b5; the GFP tag stood at the C-terminus of the fusion; surmised: ENLYFQ is left at the C-terminus after cleavage
T2 sequence (looked up): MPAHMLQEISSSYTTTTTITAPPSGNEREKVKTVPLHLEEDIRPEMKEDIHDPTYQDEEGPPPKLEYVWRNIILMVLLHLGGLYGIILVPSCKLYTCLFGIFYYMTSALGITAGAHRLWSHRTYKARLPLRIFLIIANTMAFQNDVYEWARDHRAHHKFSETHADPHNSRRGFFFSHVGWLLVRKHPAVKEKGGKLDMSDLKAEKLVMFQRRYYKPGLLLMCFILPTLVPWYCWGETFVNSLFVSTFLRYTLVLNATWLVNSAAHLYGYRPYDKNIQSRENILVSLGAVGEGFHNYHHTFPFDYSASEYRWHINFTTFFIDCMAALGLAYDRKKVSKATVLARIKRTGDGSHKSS


Assays:
[1] = molecular target: T1, full-length b5R, released from the …; experiment: cell-based or functional assay
[2] = molecular target: T2, SCD1, released from the linker-cleaved …; experiment: SEC; TM mutants in the linker-cleavable fusions, purified and cleaved by TEV protease; SRE-10C SEC-300 (Sepax) on HPLC, FPLC buffer, 0.75 mL/min; heme absorbance (413 nm by the results, 423 nm by the methods) gives the ratio of heterodimer to monomeric cyt b5; conditions: both partners purified
[3] = molecular target: T1, full-length b5R, released from the …; experiment: as above; conditions: both partners purified

percent dissociation of the complex [2]	further results	Binder
–	difference of the electron transfer rate between no NaCl and 150 mM NaCl, stable binary complex [1]: 1.04 fold; rate of electron transfer from b5R to cyt b5 (k1, reduction of cyt b5) in the stable binary complex against the mixture of the individual proteins, 150 mM NaCl [1]: ~34 fold	full-length cyt b5, released from the linker-cleaved cyt b5-b5R fusion (natural protein, mouse, UniProt P56395 1-134, looked up) MAGQSDKDVKYYTLEEIQKHKDSKSTWVILHHKVYDLTKFLEEHPGGEEVLREQAGGDATENFEDVGHSTDARELSKTYIIGELHPDDRSKIAKPSDTLITTVESNSSWWTNWVIPAISALAVALMYRLYMAED
~40%	–	cyt b5 L125W, released from the linker-cleaved SCD1-cyt b5-TEV chimera (natural protein, mouse, UniProt P56395 1-134, looked up, cytochrome b5, mouse, UniProt P56395; as m11 with the mutation; source: HEK 293S (BacMam), purified as a fusion with SCD1, cleaved by TEV protease; not shown: GFP, C-terminal, cleaved) MAGQSDKDVKYYTLEEIQKHKDSKSTWVILHHKVYDLTKFLEEHPGGEEVLREQAGGDATENFEDVGHSTDARELSKTYIIGELHPDDRSKIAKPSDTLITTVESNSSWWTNWVIPAISALAVAWMYRLYMAED
~40%	–	cyt b5 A122W, released from the linker-cleaved SCD1-cyt b5-TEV chimera (natural protein, mouse, UniProt P56395 1-134, looked up, cytochrome b5, mouse, UniProt P56395; as m11 with the mutation; source: HEK 293S (BacMam), purified as a fusion with SCD1, cleaved by TEV protease; not shown: GFP, C-terminal, cleaved) MAGQSDKDVKYYTLEEIQKHKDSKSTWVILHHKVYDLTKFLEEHPGGEEVLREQAGGDATENFEDVGHSTDARELSKTYIIGELHPDDRSKIAKPSDTLITTVESNSSWWTNWVIPAISALWVALMYRLYMAED
–	binding result [3]: binds	cyt b5 A122W, released from the linker-cleaved cyt b5-b5R-TEV chimera (natural protein, mouse, UniProt P56395 1-134, looked up, cytochrome b5, mouse, UniProt P56395; as m6 with the mutation; source: High Five cells (Bac-to-Bac), purified as a fusion with b5R, cleaved by TEV protease) MAGQSDKDVKYYTLEEIQKHKDSKSTWVILHHKVYDLTKFLEEHPGGEEVLREQAGGDATENFEDVGHSTDARELSKTYIIGELHPDDRSKIAKPSDTLITTVESNSSWWTNWVIPAISALWVALMYRLYMAED
~50%	–	cyt b5 M126A, released from the linker-cleaved SCD1-cyt b5-TEV chimera (natural protein, mouse, UniProt P56395 1-134, looked up, cytochrome b5, mouse, UniProt P56395; as m11 with the mutation; source: HEK 293S (BacMam), purified as a fusion with SCD1, cleaved by TEV protease; not shown: GFP, C-terminal, cleaved) MAGQSDKDVKYYTLEEIQKHKDSKSTWVILHHKVYDLTKFLEEHPGGEEVLREQAGGDATENFEDVGHSTDARELSKTYIIGELHPDDRSKIAKPSDTLITTVESNSSWWTNWVIPAISALAVALAYRLYMAED
~10%	–	cyt b5 R128A, released from the linker-cleaved SCD1-cyt b5-TEV chimera (natural protein, mouse, UniProt P56395 1-134, looked up, cytochrome b5, mouse, UniProt P56395; as m11 with the mutation; source: HEK 293S (BacMam), purified as a fusion with SCD1, cleaved by TEV protease; not shown: GFP, C-terminal, cleaved) MAGQSDKDVKYYTLEEIQKHKDSKSTWVILHHKVYDLTKFLEEHPGGEEVLREQAGGDATENFEDVGHSTDARELSKTYIIGELHPDDRSKIAKPSDTLITTVESNSSWWTNWVIPAISALAVALMYALYMAED
~40%	–	cyt b5 L121W, released from the linker-cleaved SCD1-cyt b5-TEV chimera (natural protein, mouse, UniProt P56395 1-134, looked up, cytochrome b5, mouse, UniProt P56395; as m11 with the mutation; source: HEK 293S (BacMam), purified as a fusion with SCD1, cleaved by TEV protease; not shown: GFP, C-terminal, cleaved) MAGQSDKDVKYYTLEEIQKHKDSKSTWVILHHKVYDLTKFLEEHPGGEEVLREQAGGDATENFEDVGHSTDARELSKTYIIGELHPDDRSKIAKPSDTLITTVESNSSWWTNWVIPAISAWAVALMYRLYMAED
–	percent dissociation of the complex [3]: ~40%	cyt b5 A124W, released from the linker-cleaved cyt b5-b5R-TEV chimera (natural protein, mouse, UniProt P56395 1-134, looked up, cytochrome b5, mouse, UniProt P56395; as m6 with the mutation; source: High Five cells (Bac-to-Bac), purified as a fusion with b5R, cleaved by TEV protease) MAGQSDKDVKYYTLEEIQKHKDSKSTWVILHHKVYDLTKFLEEHPGGEEVLREQAGGDATENFEDVGHSTDARELSKTYIIGELHPDDRSKIAKPSDTLITTVESNSSWWTNWVIPAISALAVWLMYRLYMAED
~10%	–	cyt b5 Y127A, released from the linker-cleaved SCD1-cyt b5-TEV chimera (natural protein, mouse, UniProt P56395 1-134, looked up, cytochrome b5, mouse, UniProt P56395; as m11 with the mutation; source: HEK 293S (BacMam), purified as a fusion with SCD1, cleaved by TEV protease; not shown: GFP, C-terminal, cleaved) MAGQSDKDVKYYTLEEIQKHKDSKSTWVILHHKVYDLTKFLEEHPGGEEVLREQAGGDATENFEDVGHSTDARELSKTYIIGELHPDDRSKIAKPSDTLITTVESNSSWWTNWVIPAISALAVALMARLYMAED
